In article PMC4643051:

Legend:
[1] = biological target: NS1^HA mutant S114A (Dengue virus type 2 (DENV-2), strain 16681); experiment: co-IP
[2] = biological target: NS1^HA mutant W115A (Dengue virus type 2 (DENV-2), strain 16681); experiment: co-IP

Substance: Envelope protein (E) of Dengue virus (from UniProt P29990) (natural protein)
- fold reduction of co-precipitated Envelope against wild-type NS1^HA [1]: 7.5 fold
- fold reduction of co-precipitated Envelope against wild-type NS1^HA [2]: 3.8 fold
